Results: paper PMC13570301
Residue numbers refer to the chain shown, from its start. In names and notes the source's numbering stands. One block for each binder: values may come before it.

Key:
[1] = biological target: T1, CHIP G33S, recombinant, C-terminal His tag, Q9UNE7-1; test: mass photometry; settings: chain shown with the change, self-association, fraction weighted by number of monomeric subunits, n = 3, read off a plot
T1 chain: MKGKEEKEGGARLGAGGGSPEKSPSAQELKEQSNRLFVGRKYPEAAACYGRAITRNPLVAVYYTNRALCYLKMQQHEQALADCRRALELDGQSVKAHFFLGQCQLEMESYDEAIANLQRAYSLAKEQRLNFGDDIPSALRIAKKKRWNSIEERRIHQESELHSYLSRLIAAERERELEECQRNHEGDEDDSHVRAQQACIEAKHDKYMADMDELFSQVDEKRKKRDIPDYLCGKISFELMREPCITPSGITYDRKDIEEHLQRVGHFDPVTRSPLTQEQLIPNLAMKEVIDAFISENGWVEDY

[2] = biological target: T2, CHIP-myc wild type (pcDNA3-CHIP-myc) (human), Q9UNE7; test: native gel or EMSA; Blue native PAGE and immunoblot of lysates (Native PAGE sample buffer, 1% digitonin) of transfected COS-7 cells kept at 37 °C or heat-shocked at 42 °C for 2 h; self-association; settings: remark: other sources report otherwise
T2 chain: T1 chain with S33G

other: fraction of total CHIP in octamer (8n) ([1]; parent: est. 0.12): 0.13
other: fraction of total CHIP in hexamer (6n) ([1]; parent: est. 0.23): 0.2
other: fraction of total CHIP in dimer (2n) ([1]; parent: est. 0.32): 0.38
other: fraction of total CHIP in tetramer (4n) ([1]; parent: est. 0.33): 0.3
B1: CHIP wild type, recombinant, C-terminal His tag (pET30-CHIP-His), Q9UNE7-1 G33S (protein)
chain: T1 chain

stoichiometry N [2]: 2
B2: CHIP-myc wild type (pcDNA3-CHIP-myc), Q9UNE7-1 1-303 (enzyme)
chain: T1 chain with S33G
